Here are results for five substances from publication PMC10269782.

The target in one test is Nem1-3×Flag. Briefly: co-IP (GFP IP, anti-Flag western blot, band intensity quantified). As to conditions: ΔSpo7::Nem1-Flag strain; parent: est. 100; read off a plot. Background: Immunoblotting shows a protein as a band on a membrane.
For test [1], the target named is Spo7^3R (co-IP construct) (Botryosphaeria dothidea). Briefly: co-IP; GFP and Flag fusion constructs transformed in pairs into B. dothidea LW03 (Spo7-Pah1 also in the ΔNem1 mutant); total proteins incubated with anti-GFP agarose; eluates blotted with anti-Flag and anti-GFP antibodies.
Test [2] has as its target Spo7^I52R (co-IP construct) (Botryosphaeria dothidea). Described as above.
For test [3], the target named is Spo7^L51R (co-IP construct) (Botryosphaeria dothidea). The description is as above.
Test [4] addresses Spo7^L50R (co-IP construct) (Botryosphaeria dothidea). Described as above.

As to GFP-Spo7 L50A, the percent of parent with Nem1-3×Flag came out at 108%.

In the case of Nem1-3×Flag (enzyme), the percent reduction of the interaction level against wild-type Spo7 (Nem1-Flag band in GFP IP) in test [1] was 93%; in test [2], 55%; in test [3] it was 68%; in test [4] it was 72%.

With GFP-Spo7 L50A; L51A; I52A, the percent of parent with Nem1-3×Flag was determined as 97%.

With GFP-Spo7 L51A, the percent of parent in the test with Nem1-3×Flag was determined as 100%.

Regarding GFP-Spo7 I52A, the percent of parent with Nem1-3×Flag came out at 98%.
